The source of these data is patent US20230183314A1.

In test [1] the target is human prostate specific membrane antigen (PSMA) (human) (UniProt Q04609). The experiment in a line: flow cytometry, LNCaP cells (high PSMA expression) stained with the PE conjugate; number printed over the white bar. Background: Flow cytometry measures light scatter and fluorescence of single cells or particles in a stream.
For test [2] the target is unchanged. Nature of the test: flow cytometry, 22Rv1 cells (low PSMA expression) stained with the PE conjugate; number printed over the white bar.

Sequence of human prostate specific membrane antigen (PSMA) (human) (Q04609 whole entry): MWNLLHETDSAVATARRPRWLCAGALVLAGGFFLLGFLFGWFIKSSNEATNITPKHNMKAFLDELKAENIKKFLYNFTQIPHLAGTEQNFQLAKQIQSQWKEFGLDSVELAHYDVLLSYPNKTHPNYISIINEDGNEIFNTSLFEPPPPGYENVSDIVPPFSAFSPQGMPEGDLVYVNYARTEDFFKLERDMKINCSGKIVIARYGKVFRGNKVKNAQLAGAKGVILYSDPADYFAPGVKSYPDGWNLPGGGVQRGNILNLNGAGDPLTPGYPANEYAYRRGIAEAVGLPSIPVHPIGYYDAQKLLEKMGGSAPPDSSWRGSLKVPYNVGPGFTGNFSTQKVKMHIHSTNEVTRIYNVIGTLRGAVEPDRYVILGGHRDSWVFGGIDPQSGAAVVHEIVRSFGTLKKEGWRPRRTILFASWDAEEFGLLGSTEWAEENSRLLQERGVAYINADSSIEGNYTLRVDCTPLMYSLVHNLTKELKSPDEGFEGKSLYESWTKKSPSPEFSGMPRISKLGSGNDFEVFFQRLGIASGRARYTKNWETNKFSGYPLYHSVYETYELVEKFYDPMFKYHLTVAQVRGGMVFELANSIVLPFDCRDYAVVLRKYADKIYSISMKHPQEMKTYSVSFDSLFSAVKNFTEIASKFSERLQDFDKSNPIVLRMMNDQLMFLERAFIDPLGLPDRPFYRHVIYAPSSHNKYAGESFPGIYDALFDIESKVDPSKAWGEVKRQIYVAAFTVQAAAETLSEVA

Consider “Anti PSMA antibody-PE conjugate from Biolegend (clone LNI-17 catalog #342504)”, for which the results for the MFI in test [1] and in test [2] were 263 and 13.7, respectively.
